Test results reported in paper PMC9851909, “Structure of a volume-regulated heteromeric LRRC8A/C channel” (Nature Structural & Molecular Biology, 2022).
“And” between values parts separate entries of the source, which are not always exact repeats. Equal entries are not always repeated. Each block holds one molecule with its values, some of them ahead of it.

What was measured:
[1] = molecular target: murine LRRC8C, full length (murine) (UniProt Q8R502); assay: affinity purification with mass spectrometry; differentially tagged murine LRRC8A (or LRRC8A^SAM) and LRRC8C co-expressed in HEK293S GnTI- or LRRC8-/- cells at A:C DNA ratios of 1:1 or 1:3; tandem affinity purification (Ni-NTA, then Streptactin) in digitonin, 25 mM Tris pH 8.5, 250 mM NaCl, 4 °C; LC-MS/MS absolute quantification with isotope-labelled peptides
[2] = molecular target: murine LRRC8C, full length (murine) (UniProt Q8R502); assay: cryo-EM structure; tandem-purified LRRC8A/C (A:C DNA 1:1 and 1:3) in digitonin with tag-free Sb1 added at a 1.5 molar excess before vitrification; C1; high resolution only for the 1:1 sample
[3] = molecular target: T1, endogenous LRRC8A of HEK293 cells (human (endogenous in HEK293T), UniProt Q8IWT6); assay: affinity purification with mass spectrometry; pairs of the bait Sb1: endogenous LRRC8 channels from HEK293T (WT) or LRRC8^B,D,E-/- cells isolated on SBP-tagged Sb1 and Streptactin resin (Sb1 either expressed in the same cells or purified and bound to the resin before the lysate was loaded; which protocol for which sample is not told); 2% GDN lysis, 36 mM Tris pH 8.5, 150 mM NaCl; tryptic digest, LC-MS/MS
T1 construct: LRRC8A, endogenous in HEK293 cells; also called A subunit; SWELL1; source: endogenous, HEK293T and HEK293 LRRC8^B,D,E-/- cells, lysate in 2% GDN; isolated on SBP-tagged Sb1

[4] = molecular target: the molecule itself; assay: cryo-EM structure; homomeric LRRC8C at 5 mg/ml in digitonin, three data sets, two of them with Sb1 added at a 1:1.5 molar excess (per LRRC8C subunit) as negative control; C7 symmetry
[5] = molecular target: T2, endogenous LRRC8C of HEK293 cells (human (endogenous in HEK293T), UniProt Q8TDW0 1-803); assay: affinity purification with mass spectrometry; pairs of endogenous LRRC8 subunits in the channels isolated on SBP-tagged Sb1 from HEK293T (WT) or LRRC8^B,D,E-/- cells; shotgun LC-MS/MS and absolute quantification with two isotope-labelled reference peptides per subunit; conditions: partners not purified
T2 construct: LRRC8C, endogenous in HEK293 cells; also called C subunit; source: endogenous, HEK293T and HEK293 LRRC8^B,D,E-/- cells, lysate in 2% GDN
T2 sequence (looked up): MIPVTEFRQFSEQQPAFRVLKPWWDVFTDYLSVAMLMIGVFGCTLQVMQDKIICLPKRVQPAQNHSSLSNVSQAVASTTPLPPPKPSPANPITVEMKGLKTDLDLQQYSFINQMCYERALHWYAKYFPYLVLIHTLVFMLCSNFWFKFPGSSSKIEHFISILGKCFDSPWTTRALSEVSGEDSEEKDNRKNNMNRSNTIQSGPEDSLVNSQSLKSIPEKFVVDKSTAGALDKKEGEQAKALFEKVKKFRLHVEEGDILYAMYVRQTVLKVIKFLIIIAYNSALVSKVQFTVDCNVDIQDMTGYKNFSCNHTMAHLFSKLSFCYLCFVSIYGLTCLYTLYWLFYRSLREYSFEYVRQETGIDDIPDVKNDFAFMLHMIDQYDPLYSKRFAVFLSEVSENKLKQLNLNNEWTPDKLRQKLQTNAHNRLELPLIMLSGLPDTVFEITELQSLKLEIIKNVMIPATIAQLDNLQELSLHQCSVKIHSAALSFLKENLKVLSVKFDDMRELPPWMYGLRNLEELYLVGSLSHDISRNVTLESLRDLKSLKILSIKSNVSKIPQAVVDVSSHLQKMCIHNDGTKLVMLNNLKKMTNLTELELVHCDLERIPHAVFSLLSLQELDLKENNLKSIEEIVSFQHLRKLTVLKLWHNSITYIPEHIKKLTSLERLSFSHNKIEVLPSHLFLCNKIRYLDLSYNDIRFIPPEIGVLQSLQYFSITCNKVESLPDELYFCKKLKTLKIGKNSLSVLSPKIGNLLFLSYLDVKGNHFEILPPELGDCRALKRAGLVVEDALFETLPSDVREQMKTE

- stoichiometry N [1]: 2 A:C
Molecule: LRRC8A^SAM, construct for co-expression with LRRC8C (from UniProt Q80WG5 1-67; Q80WG5 93-810)

- stoichiometry N [1]: 2 A:C and 1.8 A:C
- stoichiometry N [2]: 2 A:C
Molecule: murine LRRC8A (from UniProt Q80WG5 1-810) (natural protein)

- binding result [3]: binds
B1: SBP-tagged sybody Sb1 (VHH)
VHH: QVQLVESGGGLVQAGGSLRLSCAASGFPVGRHFMYWYRQAPGKEREWVAAIYSYGEYTEYADSVKGRFTISRDNAKNTVYLQMNSLKPEDTAVYYCYVYVGNEYWGQGTQVTVSA
notes: as the chain of m3 (sybody Sb1), here with a C-terminal 3C site, myc tag and SBP tag (pcDXc3MS); they are in PDB 8B41 and PDB 7P5V; also called SBP-tagged Sb1; immobilized Sb1; not shown: myc, C-terminal, kept; SBP, C-terminal, kept

B2: murine LRRC8C, full length (natural protein, UniProt Q8R502 1-803, looked up)
chain: MIPVTEFRQFSEQQPAFRVLKPWWDVFTDYLSVAMLMIGVFGCTLQVMQDKIICLPKRVQPAQNHSSVPNVSQAVISTTPLPPPKPSPTNPATVEMKGLKTDLDLQQYSFINQMCYERALHWYAKYFPYLVLIHTLVFMLCSNFWFKFPGSSSKIEHFISILGKCFDSPWTTRALSEVSGEDSEEKDNRKNNMNRSGTIQSGPEGNLVRSQSLKSIPEKFVVDKSAAGALDKKEGEQAKALFEKVKKFRLHVEEGDILYAMYVRQTVLKVIKFLIIIAYNSALVSKVQFTVDCNVDIQDMTGYKNFSCNHTMAHLFSKLSFCYLCFVSIYGLTCLYTLYWLFYRSLREYSFEYVRQETGIDDIPDVKNDFAFMLHMIDQYDPLYSKRFAVFLSEVSENKLKQLNLNNEWTPDKLRQKLQTNAHNRLELPLIMLSGLPDTVFEITELQSLKLEIIKNVMIPATIAQLDNLQELCLHQCSVKIHSAALSFLKENLKVLSVKFDDMRELPPWMYGLRNLEELYLVGSLSHDISKNVTLESLRDLKSLKILSIKSNVSKIPQAVVDVSSHLQKMCVHNDGTKLVMLNNLKKMTNLTELELVHCDLERIPHAVFSLLSLQELDLKENNLKSIEEIVSFQHLRKLTVLKLWYNSIAYIPEHIKKLTSLERLFFSHNKVEVLPSHLFLCNKIRYLDLSYNDIRFIPPEIGVLQSLQYFSITCNKVESLPDELYFCKKLKTLKIGKNSLSVLSPKIGNLLFLSYLDIKGNHFEVLPPELGDCRALKRAGLVVEDALFETLPSDVREQMKAD
notes: LRRC8C, mouse; A remnant of the 3C site probably stays at the C-terminus; also called C subunit; C1; source: HEK293 LRRC8-/- cells (homomer; LRRC8A/C without Sb1; LRRC8A^SAM/C) or HEK293S GnTI- cells (LRRC8A/C/Sb1 samples), transfected, purified (Streptactin, SEC; tandem purification for heteromers) in digitonin; not shown: Venus, C-terminal, cleaved; myc, C-terminal, cleaved; SBP, C-terminal, …
- stoichiometry N [4]: 7

- stoichiometry N [5]: 2.9 A:C and 1.8 A:C
B3: endogenous LRRC8A of HEK293 cells (natural protein, human (endogenous in HEK293T), UniProt Q8IWT6 1-810, looked up)
chain: MIPVTELRYFADTQPAYRILKPWWDVFTDYISIVMLMIAVFGGTLQVTQDKMICLPCKWVTKDSCNDSFRGWAAPGPEPTYPNSTILPTPDTGPTGIKYDLDRHQYNYVDAVCYENRLHWFAKYFPYLVLLHTLIFLACSNFWFKFPRTSSKLEHFVSILLKCFDSPWTTRALSETVVEESDPKPAFSKMNGSMDKKSSTVSEDVEATVPMLQRTKSRIEQGIVDRSETGVLDKKEGEQAKALFEKVKKFRTHVEEGDIVYRLYMRQTIIKVIKFILIICYTVYYVHNIKFDVDCTVDIESLTGYRTYRCAHPLATLFKILASFYISLVIFYGLICMYTLWWMLRRSLKKYSFESIREESSYSDIPDVKNDFAFMLHLIDQYDPLYSKRFAVFLSEVSENKLRQLNLNNEWTLDKLRQRLTKNAQDKLELHLFMLSGIPDTVFDLVELEVLKLELIPDVTIPPSIAQLTGLKELWLYHTAAKIEAPALAFLRENLRALHIKFTDIKEIPLWIYSLKTLEELHLTGNLSAENNRYIVIDGLRELKRLKVLRLKSNLSKLPQVVTDVGVHLQKLSINNEGTKLIVLNSLKKMANLTELELIRCDLERIPHSIFSLHNLQEIDLKDNNLKTIEEIISFQHLHRLTCLKLWYNHIAYIPIQIGNLTNLERLYLNRNKIEKIPTQLFYCRKLRYLDLSHNNLTFLPADIGLLQNLQNLAITANRIETLPPELFQCRKLRALHLGNNVLQSLPSRVGELTNLTQIELRGNRLECLPVELGECPLLKRSGLVVEEDLFNTLPPEVKERLWRADKEQA
notes: LRRC8A, endogenous in HEK293 cells; also called A subunit; SWELL1; source: endogenous, HEK293T and HEK293 LRRC8^B,D,E-/- cells, lysate in 2% GDN; isolated on SBP-tagged Sb1
